{
  "source": "patent US9803012B2",
  "about": "“Compositions and methods for regulating SAS1R” (UNIVERSITY OF VIRGINIA PATENT FOUNDATION, priority 2005, dated 2017)",
  "molecules": {"B1": {"name": "rSAS1R: mature recombinant mouse SAS1R (414 residues; SEQ ID NO:6) expressed in E. coli with histidine tag, affinity purified (protein, listed as Mus musculus)", "chain": "MGAPSASRCSGVCSTSVPEGFTPEGSPVFQDKDIPAINQGLISEETPESSFLVEGDIIRPSPFRLLSVTNNKWPKGVGGFVEIPFLLSRKYDELSRRVIMDAFAEFERFTCIRFVAYHGQRDFVSILPMAGCFSGVGRSGGMQVVSLAPTCLRKGRGIVLHELMHVLGFWHEHSRADRDRYIQVNWNEILPGFEINFIKSRSTNMLVPYDYSSVMHYGRFAFSWRGQPTIIPLWTSSVHIGQRWNLSTSDITRVCRLYNCSRSVPDSHGRGFEAQSDGSSLTPASISRLQRLLEALSEESGSSAPSGSRTGGQSIAGLGNSQQGWEHPPQSTFSVGALARPPQMLADASKSGPGAGADSLSLEQFQLAQAPTVPLALFPEARDKPAPIQDAFERLAPLPGGCAPGSHIREVPRD", "modifications": "His tag"}, "B2": {"name": "human SLLP1: human sperm lysozyme-like protein 1 (SEQ ID NO:14) (protein, listed as Homo sapiens)", "chain": "MVSALRGAPLIRVHSSPVSSPSVSGPRRLVSCLSSQSSALSQSGGGSTSAAGIEARSRALRRRWCPAGIMLLALVCLLSCLLPSSEAKLYGRCELARVLHDFGLDGYRGYSLADWVCLAYFTSGFNAAALDYEADGSTNNGIFQINSRRWCSNLTPNVPNVCRMYCSDLLNPNLKDTVICAMKITQEPQGLGYWEAWRHHCQGKDLTEWVDGCDF"}, "B3": {"name": "human SLLP2: recombinant human SLLP2 expressed in E. coli (SEQ ID NO:18) (protein, listed as Homo sapiens)", "chain": "MKAWGTVVVTLATLMVVTVDAKIYERCELAARLERAGLNGYKGYGVGDWLCMAHYESGFDTAFVDHNPDGSSEYGIFQLNSAWWCDNGITPTKNLCHMDCHDLLNRHILDDIRCAKQIVSSQNGLSAWTSWRLHCSGHDLSEWLKGCDMHVKIDPKIHP"}},
  "key": {"[1]": {"tested_on": "mouse sperm-egg fusion", "conditions": "cited from earlier work"}, "[2]": {"tested_on": "oolemma", "conditions": "sea urchin; cited from earlier work"}, "[3]": {"tested_on": "Metaphase II eggs", "experiment": "Egg labeling by indirect immunofluorescence", "format": "cell-based, mouse", "conditions": "100 μg/ml protein, 45 min", "experimental": "Metaphase II eggs were obtained as previously described (Coonrod et al, 1999) and incubated with 5% NGS/media for 30 min. Oocytes were washed five times in TYH medium and incubated with 100 μg/ml recmSLLP1 or 100 μg/ml lysozymes for 45 min at 37° C. and 5% CO2. Oocytes were washed five times and incubated with guinea pig anti-recmSLLP1 polyclonal antibody (1:50), sheep anti-human lysozyme (1:25) or rabbit anti-chicken lysozyme (1:400) in 5% NGS/media for 1 h at 37° C. and 5% CO2. Oocytes were washed five times and incubated with donkey anti-guinea pig/Texas Red antibody (1:200) or goat anti-guinea pig/FITC antisera 1:200), donkey anti-sheep and goat anti-rabbit FITC-labeled secondary antibody (1:200) (Jackson ImmunoResearch), respectively in 5% NGS/media for 1 h at […] 37° C. and 5% CO2. Oocytes were washed and mounted in media onto glass slides and visualized under a Zeiss Standard 18 ultraviolet microscope. Images were captured by using MrGrab 1.0 (Carl Zeiss Vision GmbH, Germany)."}, "[4]": {"target": "T1, fluorescent tagged synthetic peptide (Mus musculus, UniProt Q6HA09)", "T1 construct": "The mature rSAS1R (414 residues); 20 vector-encoded residues including His6 (pET-28b) (N); made in house; host or cells: E. coli BL21DE3", "T1 sequence (Q6HA09 22-435)": "B1 chain", "experiment": "Protease activity assay of SAS1R (EnzChek Peptidase/Protease Assay Kit, FRET)", "format": "biochemical", "experimental": "Protease activity was assayed with purified soluble rSAS1R using the EnzChek® Peptidase/Protease Assay Kit.\nProtease activity was assayed in serial dilutions (0-2000 ng) of purified bacterial recombinant SAS1R using the EnzChek® Peptidase/Protease Assay Kit (Molecular Probes, OR), which provides a FRET (fluorescence resonance energy transfer)-based method for quantitation of a wide range of protease activities. This assay was performed in 100 μl size reactions and repeated three times with varying concentrations of recombinant SAS1R. Fluorescence was measured over 24 h following the manufacturer's protocol. Protease activity of recombinant SAS1R appeared within 1 h and increased within 24 h. SLLP1 was used as a negative control. The assay method was validated using purified trypsin as a positive control (Sigma, MO)."}, "[5]": {"tested_on": "cumulus intact oocytes", "experiment": "Mouse in vitro fertilization, capacitated sperm pre-incubated with rSAS1R", "format": "cell-based", "experimental": "Epididymal sperm from sexually mature and oocytes from 6 to 8 weeks old ICR mice were used for gamete studies and IVF. Capacitated sperm in presence or absence of rSAS1R were used to inseminate cumulus intact oocytes and fertilization was scored by counting two cell embryos.\nICR mice were used in all experiments. Suspensions of epididymal spermatozoa from sexually mature male mice were prepared for insemination of isolated oocytes. Oocytes were obtained from 6 to 8 weeks old females superovulated with 10 IU PMSG and 10 IU hCG, injected intraperitoneally at 48 h intervals. Females were killed 16 h after hCG injection, and both oviducts were immediately removed, placed in mineral oil, and flushed to recover oocytes.\nIn vitro fertilization was conducted with cumulus intact oocytes using sperm dispersed from cauda epididymides. Sperm were placed for 5 min in 200 μl drops of fertilization medium under paraffin oil. […] The eggs were then placed in 5 μl of fertilization medium between a microscope slide and an elevated coverslip, and visualized at 160× using light and fluorescence microscopy (Zeiss Axioplan). Two-cell embryos were scored as fertilized, while one-celled oocytes were scored as unfertilized."}, "[6]": {"tested_on": "capacitated sperm", "experiment": "Co-localization of rSAS1R binding sites and SLLP1 on sperm", "format": "cell-based, mouse", "conditions": "capacitated sperm incubated with rSAS1R, probed with both antibodies", "experimental": "Zona intact-, zona free oocytes, early embryos and sperm were collected as before (10), blocked and probed with 1st and 2nd antibody and imaged with UV-microscopy. For co-LC studies, gametes were incubated with soluble rSAS1R or rSLLP1, washed, probed with 1st- and 2nd antibodies and imaged with UV-microscopy.\nSimilarly capacitated mouse sperm were also examined for co-localization of SAS1R binding sites and SLLP1 localization. Sperms were incubated with increasing concentrations (0-100 μg/ml) of rSAS1R for 1 h, then sperm were washed two times at 700 g for 8 min and droplets were made on glass slide. These droplets were air-dried for 30 min and rehydrated again with 20 μl of PBS for 5 min. Now in the droplets, sperm were fixed with 20 μl of 4% paraformaldehyde for 25 min and then washed with 20 μl of PBS thrice for 5 min each. Now the droplets were blocked with 10% NGS for 30 min and incubated with guinea pig anti-rSAS1R polyclonal antibody (1:200) and rat anti-rSLLP1 polyclonal antibody (1:200) simultaneously, in 0.1% NGS/media for 1 h at 37° C. and 5% CO2. All the droplets were washed three times and incubated with goat anti-guinea pig/Cy3 red antibody (1:200, Jackson ImmunoResearch, PA) and goat anti-rat/FITC green antibody (1:200, Jackson ImmunoResearch, PA), in 0.1% NGS/media for 1 h at 37° C. and 5% CO2. Sperms were washed and mounted in media on glass slides. […]"}, "[7]": {"tested_on": "zona-free mouse eggs", "experiment": "In vitro fertilization with zona-free eggs (sperm-oolemma binding and fusion)", "format": "cell-based", "conditions": "25 μg of human SLLP1", "experimental": "For the sperm-oolemma binding assay, two cauda epididymides were placed in 900 μl drops of fertilization medium under paraffin oil for the dense mass of spermatozoa to flow freely for ˜15 min and then diluted at 1×10^6/ml for 3 h of capacitation. Cumulus oocyte complexes were placed in 200 μl drops of TYH medium under paraffin oil. Cumulus cells were removed by treating the oocytes for 3 min with 1 mg/ml hyaluronidase in TYH medium and then washed 8 times in 50 μl drops. Zona pellucidae were loosened by treating the oocytes with 10 μg/ml chymotrypsin in TYH media for 1 min and loosened zonae were removed by mechanical agitation using a pulled Pasteur pipette. The oocytes were then washed 10 times and allowed to recover from chymotrypsin treatment by incubating in TYH media for 3 h, following which, they were stained with 10 μg/ml Hoechst dye for 10 min, and then gently washed. […]\nTo compare the effects of recmSLLP1 with human and chicken c lysozymes, spermatozoa were first incubated under standard capacitating conditions. Oocytes were pre-incubated for 45 min before insemination with recmSLLP1 (0.1 to 200 μg/ml) or with hSLLP1 (25 μg/ml) or with chicken or human lysozyme (50 μg/ml, 100 μg/ml). Untreated capacitated sperm were then added to the incubation drops containing the treated eggs with a final sperm concentration of 2.5×10^4/ml. Thus, in all the experiments performed the sera, the recombinant protein, or the lysozyme was present in the incubation droplet during gamete interaction. After 30 min of gamete co-incubation, oocytes were gently washed 5 times in TYH medium and placed between a microscope slide and an elevated coverslip and visualized at 160×. Binding to the oocyte was scored by counting the number of bound spermatozoa per oocyte using phase contrast. Fusion with the egg was scored by counting the number of decondensed sperm heads within each oocyte using fluorescence microscopy."}, "[8]": {"tested_on": "mouse eggs", "experiment": "Binding of SLLP2 to mouse eggs", "format": "cell-based", "conditions": "human SLLP2", "experimental": "To analyze the biologic activity of human SLLP2, it was determined whether it would bind to an egg, in this case, a mouse egg.\nFor comparison to the use of human sperm SLLP2, an experiment was performed to determine if purified mouse SLLP2 would bind to Zona intact mouse eggs. […] Competitive assays were then performed to determine whether the addition of recombinant mouse SLLP2 to a mixture of mouse sperm and mouse eggs could inhibit binding of sperm and eggs. Various amounts of recombinant mouse SLLP2 were added (5, 25, 50, 100, and 200 μg/ml) and the number of sperm bound per egg was determined."}},
  "data": [
    {"molecule": "c1cnc2c(c1)ccc1cccnc12", "note": "[1,10-phenanthroline]", "values": [
      {"measurement": "sperm-egg binding", "setting": "[1]", "value": "without reducing sperm-egg binding"},
      {"measurement": "sperm-egg fusion", "setting": "[1]", "value": "inhibited mouse sperm-egg fusion"},
      {"measurement": "binding of acrosome reacted sperm to the oolemma", "setting": "[2]", "value": "no effect"},
      {"measurement": "block of membrane fusion", "setting": "[2]", "value": 95, "unit": "%"}
    ]},
    {"molecule": "chicken lysozyme: conventional chicken c lysozyme used as comparator", "values": [
      {"measurement": "fluorescence of mouse oocytes after incubation with protein and respective antibody", "setting": "[3]", "value": "did not show any fluorescence"}
    ]},
    {"molecule": "human lysozyme: conventional human c lysozyme used as comparator", "values": [
      {"measurement": "fluorescence of mouse oocytes after incubation with protein and respective antibody", "setting": "[3]", "value": "did not show any fluorescence"}
    ]},
    {"molecule": "B1", "values": [
      {"measurement": "proteolytic activity", "setting": "[4]; 200-2000 ng rSAS1R in 100 μl assay, FRET, up to 24 h", "value": "dose dependent proteolytic activity"},
      {"measurement": "time until protease activity appeared", "setting": "[4]; fluorescence measured over 24 h", "value": "≤ 1", "unit": "h"},
      {"measurement": "reduction in fertilization", "setting": "[5]; 10 μg/ml rSAS1R", "value": "not statistically significant"},
      {"measurement": "reduction in fertilization", "setting": "[5]; 25 μg/ml rSAS1R, P≦0.03, two cell embryos scored", "value": 89, "unit": "%"},
      {"measurement": "binding to sperm", "setting": "[6]", "value": "binds to acrosome of sperm and co-localizes with native SLLP1"}
    ]},
    {"molecule": "B2", "values": [
      {"measurement": "sperm-egg binding and fusion", "setting": "[7]", "value": "maximally inhibited"}
    ]},
    {"molecule": "B3", "values": [
      {"measurement": "binding to mouse eggs (cross-species)", "setting": "[8]", "value": "can indeed bind with mouse eggs"}
    ]}
  ]
}
